According to the supplement of paper PMC6755084:

Tested on: F1*sub RNA substrate (template-directed ligation)
Experiment: fraction ligated after 30 min (ligated reads / total reads); higher = more ligase activity; sequences stand for … in GAGACCGCAACTGAAAAGTTGT…AGTTCTGCACGTAGAAGCAAAAGGC
Conditions: 42 °C
How it was run: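 Templates from an oligo pool were PCR-amplified, transcribed with T7 and gel-purified to give the ribozyme variants. Ligated and unligated products were separated on gel, reverse transcribed using barcoded primers, and read on a MiSeq. A quality filter of ≥20 was applied to core bases. Fraction ligated was taken as ligated reads as a share of all reads per variant.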

Row | Sequence | fraction ligated
1 | TATCACTTGCGTAAGACACTTTGATGGGTTA [3d1692] | 0.138
2 | TATCACTTGCGTAAGACACTTTGATGGGTTG [3d1693] | 0.725
3 | TATCACTTGCGTAAGACACTTTGATGGTTGA [3d1691] | 0.1
4 | TATCACTTGCGTAAGACACTTTGGAGGGTTA [3d1699] | 0.122
5 | TATCACTTGCGTAAGACACTTTGGAGGGTTG [3d1700] | 0.0669
6 | TATCACTTGCGTAAGACACTTTGGAGGTTGA [3d1698] | 0.0604
7 | TATCACTTGCGTAAGACACTTTGGATGGGTT [3d1703] | 0.704
8 | TATCACTTGCGTAAGACACTTTGGATGGGTTA [2d177] | 0.822
9 | TATCACTTGCGTAAGACACTTTGGATGGGTTG [2d178] | 0.825
10 | TATCACTTGCGTAAGACACTTTGGATGGGTTGA [1d9] | 0.85
11 | TATCACTTGCGTAAGACACTTTGGATGGTTA [3d1701] | 0.227
12 | TATCACTTGCGTAAGACACTTTGGATGGTTG [3d1702] | 0.208
13 | TATCACTTGCGTAAGACACTTTGGATGGTTGA [2d176] | 0.324
14 | TATCACTTGCGTAAGACACTTTGGGGGTTGA [3d1694] | 0.122
15 | TATCACTTGCGTAAGACACTTTGGTGGGTTA [3d1696] | 0.0753
16 | TATCACTTGCGTAAGACACTTTGGTGGGTTG [3d1697] | 0.038
17 | TATCACTTGCGTAAGACACTTTGGTGGTTGA [3d1695] | 0.0605
18 | TATCACTTGCGTAAGACACTTTGTGGGTTGA [3d1689] | 0.05
19 | TATCACTTGCGTAAGACATTGGATGGGTTGA [3d1674] | 0.802
20 | TATCACTTGCGTAAGACATTTGATGGGTTGA [3d1675] | 0.574
21 | TATCACTTGCGTAAGACATTTGGAGGGTTGA [3d1677] | 0.0596
22 | TATCACTTGCGTAAGACATTTGGATGGGTTA [3d1679] | 0.808
23 | TATCACTTGCGTAAGACATTTGGATGGGTTG [3d1680] | 0.84

Row | Sequence | fraction ligated
24 | TATCACTTGCGTAAGACATTTGGATGGTTGA [3d1678] | 0.16
25 | TATCACTTGCGTAAGACATTTGGTGGGTTGA [3d1676] | 0.0926
26 | TATCACTTGCGTAAGACCTTGGATGGGTTGA [3d1667] | 0.797
27 | TATCACTTGCGTAAGACCTTTGATGGGTTGA [3d1668] | 0.789
28 | TATCACTTGCGTAAGACCTTTGGAGGGTTGA [3d1670] | 0.0866
29 | TATCACTTGCGTAAGACCTTTGGATGGGTTA [3d1672] | 0.785
30 | TATCACTTGCGTAAGACCTTTGGATGGGTTG [3d1673] | 0.81
31 | TATCACTTGCGTAAGACCTTTGGATGGTTGA [3d1671] | 0.176
32 | TATCACTTGCGTAAGACCTTTGGTGGGTTGA [3d1669] | 0.137
33 | TATCACTTGCGTAAGACTTTGGATGGGTTGA [3d1649] | 0.849
34 | TATCACTTGCGTAAGCACTTGGATGGGTTGA [3d1652] | 0.792
35 | TATCACTTGCGTAAGCACTTTGATGGGTTGA [3d1653] | 0.802
36 | TATCACTTGCGTAAGCACTTTGGAGGGTTGA [3d1655] | 0.178
37 | TATCACTTGCGTAAGCACTTTGGATGGGTTA [3d1657] | 0.812
38 | TATCACTTGCGTAAGCACTTTGGATGGGTTG [3d1658] | 0.832
39 | TATCACTTGCGTAAGCACTTTGGATGGTTGA [3d1656] | 0.705
40 | TATCACTTGCGTAAGCACTTTGGTGGGTTGA [3d1654] | 0.366
41 | TATCACTTGCGTAAGCATTTGGATGGGTTGA [3d1651] | 0.83
42 | TATCACTTGCGTAAGCCTTTGGATGGGTTGA [3d1650] | 0.806
43 | TATCACTTGCGTAGAACTTTGGATGGGTTGA [3d1629] | 0.862
44 | TATCACTTGCGTAGACACTTGGATGGGTTGA [3d1632] | 0.779
45 | TATCACTTGCGTAGACACTTTGATGGGTTGA [3d1633] | 0.803
46 | TATCACTTGCGTAGACACTTTGGAGGGTTGA [3d1635] | 0.105

Row | Sequence | fraction ligated
47 | TATCACTTGCGTAGACACTTTGGATGGGTTA [3d1637] | 0.781
48 | TATCACTTGCGTAGACACTTTGGATGGGTTG [3d1638] | 0.816
49 | TATCACTTGCGTAGACACTTTGGATGGGTTGA [2d166] | 0.835
50 | TATCACTTGCGTAGACACTTTGGATGGTTGA [3d1636] | 0.296
51 | TATCACTTGCGTAGACACTTTGGTGGGTTGA [3d1634] | 0.0947
52 | TATCACTTGCGTAGACATTTGGATGGGTTGA [3d1631] | 0.821
53 | TATCACTTGCGTAGACCTTTGGATGGGTTGA [3d1630] | 0.817
54 | TATCACTTGCGTAGCACTTTGGATGGGTTGA [3d1628] | 0.859
55 | TATCACTTGCGTGACACTTTGGATGGGTTGA [3d1626] | 0.829
56 | TATCACTTGCTAAACACTTTGGATGGGTTGA [3d1601] | 0.777
57 | TATCACTTGCTAAGAACTTTGGATGGGTTGA [3d1603] | 0.831
58 | TATCACTTGCTAAGACACTTGGATGGGTTGA [3d1606] | 0.782
59 | TATCACTTGCTAAGACACTTTGATGGGTTGA [3d1607] | 0.738
60 | TATCACTTGCTAAGACACTTTGGAGGGTTGA [3d1609] | 0.13
61 | TATCACTTGCTAAGACACTTTGGATGGGTTA [3d1611] | 0.773
62 | TATCACTTGCTAAGACACTTTGGATGGGTTG [3d1612] | 0.8
63 | TATCACTTGCTAAGACACTTTGGATGGGTTGA [2d164] | 0.822
64 | TATCACTTGCTAAGACACTTTGGATGGTTGA [3d1610] | 0.351
65 | TATCACTTGCTAAGACACTTTGGTGGGTTGA [3d1608] | 0.11
66 | TATCACTTGCTAAGACATTTGGATGGGTTGA [3d1605] | 0.849
67 | TATCACTTGCTAAGACCTTTGGATGGGTTGA [3d1604] | 0.811
68 | TATCACTTGCTAAGCACTTTGGATGGGTTGA [3d1602] | 0.834
69 | TATCACTTGCTAGACACTTTGGATGGGTTGA [3d1600] | 0.805

Row | Sequence | fraction ligated
70 | TATCACTTGGAAGACACTTTGGATGGGTTGA [3d1585] | 0.823
71 | TATCACTTGGTAAACACTTTGGATGGGTTGA [3d1587] | 0.826
72 | TATCACTTGGTAAGAACTTTGGATGGGTTGA [3d1589] | 0.804
73 | TATCACTTGGTAAGACACTTGGATGGGTTGA [3d1592] | 0.795
74 | TATCACTTGGTAAGACACTTTGATGGGTTGA [3d1593] | 0.776
75 | TATCACTTGGTAAGACACTTTGGAGGGTTGA [3d1595] | 0.0523
76 | TATCACTTGGTAAGACACTTTGGATGGGTTA [3d1597] | 0.733
77 | TATCACTTGGTAAGACACTTTGGATGGGTTG [3d1598] | 0.809
78 | TATCACTTGGTAAGACACTTTGGATGGGTTGA [2d163] | 0.813
79 | TATCACTTGGTAAGACACTTTGGATGGTTGA [3d1596] | 0.134
80 | TATCACTTGGTAAGACACTTTGGTGGGTTGA [3d1594] | 0.047
81 | TATCACTTGGTAAGACATTTGGATGGGTTGA [3d1591] | 0.832
82 | TATCACTTGGTAAGACCTTTGGATGGGTTGA [3d1590] | 0.765
83 | TATCACTTGGTAAGCACTTTGGATGGGTTGA [3d1588] | 0.818
84 | TATCACTTGGTAGACACTTTGGATGGGTTGA [3d1586] | 0.829
85 | TATCACTTGTAAGACACTTTGGATGGGTTGA [3d1311] | 0.837
86 | TATCACTTGTCAAACACTTTGGATGGGTTGA [3d1811] | 0.802
87 | TATCACTTGTCAAGAACTTTGGATGGGTTGA [3d1813] | 0.839
88 | TATCACTTGTCAAGACACTTGGATGGGTTGA [3d1816] | 0.76
89 | TATCACTTGTCAAGACACTTTGATGGGTTGA [3d1817] | 0.715
90 | TATCACTTGTCAAGACACTTTGGAGGGTTGA [3d1819] | 0.138
91 | TATCACTTGTCAAGACACTTTGGATGGGTTA [3d1821] | 0.781
92 | TATCACTTGTCAAGACACTTTGGATGGGTTG [3d1822] | 0.777

Row | Sequence | fraction ligated
93 | TATCACTTGTCAAGACACTTTGGATGGGTTGA [2d194] | 0.809
94 | TATCACTTGTCAAGACACTTTGGATGGTTGA [3d1820] | 0.288
95 | TATCACTTGTCAAGACACTTTGGTGGGTTGA [3d1818] | 0.128
96 | TATCACTTGTCAAGACATTTGGATGGGTTGA [3d1815] | 0.829
97 | TATCACTTGTCAAGACCTTTGGATGGGTTGA [3d1814] | 0.762
98 | TATCACTTGTCAAGCACTTTGGATGGGTTGA [3d1812] | 0.785
99 | TATCACTTGTCAGACACTTTGGATGGGTTGA [3d1810] | 0.824
100 | TATCACTTGTCGAAAACTTTGGATGGGTTGA [3d1915] | 0.798
101 | TATCACTTGTCGAAACACTTGGATGGGTTGA [3d1918] | 0.776
102 | TATCACTTGTCGAAACACTTTGATGGGTTGA [3d1919] | 0.721
103 | TATCACTTGTCGAAACACTTTGGAGGGTTGA [3d1921] | 0.0563
104 | TATCACTTGTCGAAACACTTTGGATGGGTTA [3d1923] | 0.756
105 | TATCACTTGTCGAAACACTTTGGATGGGTTG [3d1924] | 0.817
106 | TATCACTTGTCGAAACACTTTGGATGGTTGA [3d1922] | 0.0984
107 | TATCACTTGTCGAAACACTTTGGTGGGTTGA [3d1920] | 0.0386
108 | TATCACTTGTCGAAACATTTGGATGGGTTGA [3d1917] | 0.821
109 | TATCACTTGTCGAAACCTTTGGATGGGTTGA [3d1916] | 0.78
110 | TATCACTTGTCGAACACTTTGGATGGGTTGA [3d1903] | 0.802
111 | TATCACTTGTCGAAGAACTTGGATGGGTTGA [3d1936] | 0.794
